Test results published in US10590192B2, “Midkine antibody” (Cellmid Limited, priority 2014, dated 2020).
Numbering of substitutions follows the chain as printed.

T1: murine MK (muMK) (Mus musculus, UniProt P12025)
T1 sequence (P12025 23-140): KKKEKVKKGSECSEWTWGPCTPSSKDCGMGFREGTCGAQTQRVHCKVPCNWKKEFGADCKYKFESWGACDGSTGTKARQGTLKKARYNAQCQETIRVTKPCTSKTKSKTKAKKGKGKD

T2: recombinant human MK (huMK) (Homo sapiens, UniProt P21741)
T2 sequence (P21741 21-143): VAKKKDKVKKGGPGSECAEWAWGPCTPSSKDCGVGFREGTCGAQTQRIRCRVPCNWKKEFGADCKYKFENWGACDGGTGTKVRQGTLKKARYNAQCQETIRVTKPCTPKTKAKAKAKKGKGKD

B1: IP14-H5L5: humanised IP14 antibody: VH SEQ ID NO: 6, VL SEQ ID NO: 14 (antibody, V domains shown)
VH: QVQLVQSGGGLVQPGGSLRLSCAASGQSFSSYWMNWVRQAPGQGLEWIGMIHPSDSETILNQKFKDKATLTVDISKNTAYLQMNSLRAEDTAVYYCSSWSAKRGDFWGQGTLVTVSS
VL: EIVLTQSPATLSLSPGERATLSCRASQGVSSNLAWYQQKPGQAPRLLIYDASNRATGIPARFSGSGPGTDFTLTISSLEPEDFAVYYCQQSNSWPLTFGQGTKVEIKR
modifications: Variable region heavy chain humanised variant 5 (VH5); Variable region light chain humanised variant 5 (VL5)
B2: IP14-H6L5: humanised IP14 antibody: VH SEQ ID NO: 7, VL SEQ ID NO: 14 (antibody, V domains shown)
VH: B1 VH with Q13K, G16H, Q43K, T71S, S75A, T78S
VL: B1 VL
modifications: Variable region heavy chain humanised variant 6 (VH6); Variable region light chain humanised variant 5 (VL5)
B3: IP14-H1L5: humanised IP14 antibody: VH SEQ ID NO: 2, VL SEQ ID NO: 14 (antibody, V domains shown)
VH: QVQLVQSGAEVKKPGHSVKVSCKASGQSFSSYWMNWVRQAPGQGLEWIGMIHPSDSETILNQKFKDKATLTVDISTSTAYMELSSPRSEDTAVYYCSSWSAKRGDFWGQGTLVTVSS
VL: B1 VL
modifications: Variable region heavy chain humanised variant 1 (VH1); Variable region light chain humanised variant 5 (VL5)
B4: IP14-H2L5: humanised IP14 antibody: VH SEQ ID NO: 3, VL SEQ ID NO: 14 (antibody, V domains shown)
VH: B3 VH with H16A, P86L
VL: B1 VL
modifications: Variable region heavy chain humanised variant 2 (VH2); Variable region light chain humanised variant 5 (VL5)
B5: IP14-H4L1: humanised IP14 antibody: VH SEQ ID NO: 5, VL SEQ ID NO: 10 (antibody, V domains shown)
VH: QVQLVQSGAEVKKPGASVKVSCKASGYTFTSYYMHWVRQAPGQGLEWMGIIHPSGGSTSYAQKFQGRVTMTRDTSTSTVYMELSSLRSEDTAVYYCARWSAKRGDFWGQGTLVTVSS
VL: EIVLTQSPATLSLSPGERANLSCRASESISNNLHWYQQKPHQAPRLLIKYASQSISGIPARFSGSGPGTDFNLTISSVEPEDFAVYYCQQSNSWPLTFGGGTKLEIKR
modifications: Variable region heavy chain humanised variant 4 (VH4); Variable region light chain humanised variant 1 (VL1)
B6: IP14-H4L2: humanised IP14 antibody: VH SEQ ID NO: 5, VL SEQ ID NO: 11 (antibody, V domains shown)
VH: B5 VH
VL: B5 VL with N20T, H41G, N72T
modifications: Variable region heavy chain humanised variant 4 (VH4); Variable region light chain humanised variant 2 (VL2)
B7: IP14-H4L3: humanised IP14 antibody: VH SEQ ID NO: 5, VL SEQ ID NO: 12 (antibody, V domains shown)
VH: B5 VH
VL: B5 VL with E1D, N20T, H41G, K49Y, N72T, V78L
modifications: Variable region heavy chain humanised variant 4 (VH4); Variable region light chain humanised variant 3 (VL3)
B8: IP14-H4L4: humanised IP14 antibody: VH SEQ ID NO: 5, VL SEQ ID NO: 13 (antibody, V domains shown)
VH: B5 VH
VL: EIVLTQSPDFQSVTPKEKVNITCRASESISNNLHWYQQKPHQSPKLLIYYASQSISGVPSRFSGSGSGTDFNLTINSVEAEDAATYYCQQSNSWPLTFGGGTKLEIKR
modifications: Variable region heavy chain humanised variant 4 (VH4); Variable region light chain humanised variant 4 (VL4)
B9: IP14-H4L5: humanised IP14 antibody: VH SEQ ID NO: 5, VL SEQ ID NO: 14 (antibody, V domains shown)
VH: B5 VH
VL: B1 VL
modifications: Variable region heavy chain humanised variant 4 (VH4); Variable region light chain humanised variant 5 (VL5)
B10: IP14-H4L6: humanised IP14 antibody: VH SEQ ID NO: 5, VL SEQ ID NO: 15 (antibody, V domains shown)
VH: B5 VH
VL: EIVLTQSPSTLSASVGDRVNITCRASESISNNLHWYQQKPHKAPKLLIYYASQSISGVPSRFSGSGSGTEFNLTISSVQPDDFATYYCQQSNSWPLTFGQGTKVEIKR
modifications: Variable region heavy chain humanised variant 4 (VH4); Variable region light chain humanised variant 6 (VL6)
B11: IP14-H3L4: humanised IP14 antibody: VH SEQ ID NO: 4, VL SEQ ID NO: 13 (antibody, V domains shown)
VH: B3 VH with H16A, I48M, A68V, L70M, V72R, I74T, A79V, P86L, S97A, S98R
VL: B8 VL
modifications: Variable region heavy chain humanised variant 3 (VH3); Variable region light chain humanised variant 4 (VL4)
B12: IP14-H3L5: humanised IP14 antibody: VH SEQ ID NO: 4, VL SEQ ID NO: 14 (antibody, V domains shown)
VH: B3 VH with H16A, I48M, A68V, L70M, V72R, I74T, A79V, P86L, S97A, S98R
VL: B1 VL
modifications: Variable region heavy chain humanised variant 3 (VH3); Variable region light chain humanised variant 5 (VL5)
B13: IP14-H3L7: humanised IP14 antibody: VH SEQ ID NO: 4, VL SEQ ID NO: 16 (antibody, V domains shown)
VH: B3 VH with H16A, I48M, A68V, L70M, V72R, I74T, A79V, P86L, S97A, S98R
VL: B5 VL with E1D, K49Y, I58V, P67S, G100Q, L104V
modifications: Variable region heavy chain humanised variant 3 (VH3); Variable region light chain humanised variant 7 (VL7)
B14: IP14-H3L8: humanised IP14 antibody: VH SEQ ID NO: 4, VL SEQ ID NO: 17 (antibody, V domains shown)
VH: B3 VH with H16A, I48M, A68V, L70M, V72R, I74T, A79V, P86L, S97A, S98R
VL: B5 VL with E1D, N20T, K49Y, I58V, P67S, N72T, G100Q, L104V
modifications: Variable region heavy chain humanised variant 3 (VH3); Variable region light chain humanised variant 8 (VL8)

Biological target: T1, murine MK (muMK)
Experiment: ELISA binding of humanised anti-MK antibodies to muMK
Conditions: ELISA, plates coated with 2 ug/mL muMK; read-out: Binding affinity for muMK, ELISA EC50
Description: (§1) The binding specificity and affinity of the humanised anti-MK antibodies to recombinant human MK (huMK) and murine MK (muMK) was assessed by ELISA. ELISA plates (Nunc Immuno MaxiSorp 96 well flat-bottom were coated with 100 uL of 2 ug/mL of either huMK or muMK in 2% BSA/PBS (overnight at room temperature). After washing, blocking (1 h at 37° C.), and washing again, the humanised anti-MK and chimeric antibodies described in Example 1 were analysed for binding to huMK or muMK at concentrations ranging between 3 μg/ml and 0.00004 μg/ml in 2% BSA/PBS (1 h at 37° C.). After washing, the binding of antibody was detected with goat anti-mouse IgG (Fab specific)-HRP conjugate (Sigma, Cat. No. A9917) and SigmaFast OPD substrate (Sigma, Cat. No. P9187). The reaction was stopped with 3 M HCl, absorbance read at 490 nm on a Dynex Technologies MRX TC II plate reader and the binding curves plotted. Binding affinity data for the humanised anti-MK antibodies to huMK and muMK are presented in Table 6 and Table 7 respectively, and in FIG. 3.
(§2) KD values for hIP14-H5L8, hIP14-H6L3 and hIP14-H6L8 was then compared with the KD values obtained for the corresponding murine IP14 precursor antibody and the chimeric antibody using the methods described in Example 2. […] Based on this finding, these candidate antibodies were produced to 100 mg scale to enable further testing in functional assays to determine biological function.

Q: For B1, which EC50 is on record?
A: > 10 nM

Q: B2 was tested. Which EC50 did it give?
A: > 10 nM

Q: B3 was tested. Which EC50 did it give?
A: > 10 nM

Q: Which EC50 does the source give for B4 here?
A: > 10 nM

Q: B5 was tested. Which EC50 did it give?
A: > 10 nM

Q: With B6 as the molecule, how does the EC50 read?
A: > 10 nM

Q: How did the EC50 turn out when B7 was run?
A: > 10 nM

Q: Which EC50 does the source give for B8 here?
A: > 10 nM

Q: Which EC50 does the source give for B9 here?
A: > 10 nM

Q: B10 was tested. Which EC50 did it give?
A: > 10 nM

Biological target: T2, recombinant human MK (huMK)
Experiment: ELISA binding of humanised anti-MK antibodies to huMK
Conditions: ELISA, plates coated with 2 ug/mL huMK; read-out: Binding affinity for huMK, ELISA EC50
Description: as §1, §2

Q: With B1 as the molecule, how does the EC50 read?
A: > 10 nM

Q: How did the EC50 turn out when B2 was run?
A: > 10 nM

Q: How did the EC50 turn out when B3 was run?
A: > 10 nM

Q: B4 was tested. Which EC50 did it give?
A: > 10 nM

Q: For B11, which EC50 is on record?
A: > 10 nM

Q: For B12, which EC50 is on record?
A: > 10 nM

Q: Which EC50 does the source give for B13 here?
A: > 10 nM

Q: With B14 as the molecule, how does the EC50 read?
A: > 10 nM

Q: Which EC50 does the source give for B5 here?
A: > 10 nM

Q: With B6 as the molecule, how does the EC50 read?
A: > 10 nM

Q: How did the EC50 turn out when B7 was run?
A: > 10 nM

Q: For B8, which EC50 is on record?
A: > 10 nM

Q: Which EC50 does the source give for B9 here?
A: > 10 nM

Q: For B10, which EC50 is on record?
A: > 10 nM
